Measurements: patent US20200207869A1

Molecular target: VWF in the plasma of the mice (endogenous murine VWF) (murine) (UniProt Q8CIZ8)
Test: sandwich ELISA of mouse plasma, anti-FVII capture, anti-VWF detection, n=4 mice

B1: FVII-KB13-bv (protein)
chain: AGGVAKASGGETRDMPWKPGPHRVFVTQEEAHGVLHRRRRANAFLEELRPGSLERECKEEQCSFEEAREIFKDAERTKLFWISYSDGDQCASSPCQNGGSCKDQLQSYICFCLPAFEGRNCETHKDDQLICVNENGGCEQYCSDHTGTKRSCRCHEGYSLLADGVSCTPTVEYPCGKIPILEKRNASKPQGRIVGGKVCPKGECPQVLLLVNGAQLCGGTLINTIWVVSAAHCFDKIKNWRNLIAVLGEHDLSEHDGDEQSRRVAQVIIPSTYVPGTTNHDIALLRLHQPVVLTDHVVPLCLPERTFSERTLAFVRFSLVSGWGQLLDRGATALELMVLNVPRLMTQDCLQQSRKVGDSPNITEYMFCAGYSDGSKDSCKGDSGGPHATHYRGTWYLTGIVSWGQGCATVGHFGVYTRVSQYIEWLQKLMRSEPRPGVLLRAPFPLTPRGVRLGGGSGGGSGGGSGGGSQVQLVQSGGGLVQAGDSLRLSCAASGRTFIRYAMAWFRQAPGKEREFVAAIPQSGGRSYYADSVKGRFTISRDNAKNTVYLQMNSLKPEDTAVYSCAATSTYYGRSAYSSHSGGYDYWGQGTQVTVSSGGGSGGGSGGGSGGGSQVQLVQSGGGLVQAGDSLRLSCAASGRTFIRYAMAWFRQAPGKEREFVAAIPQSGGRSYYADSVKGRFTISRDNAKNTVYLQMNSLKPEDTAVYSCAATSTYYGRSAYSSHSGGYDYWGQGTQVTVSS
OD450 nm: 0.684 OD450 nm
